Test results: patent publication US20240398911A1

Experiments:
Test in all cases: BLI, sACE22-IgG1 immobilized, RBD-8h analyte
[1] = target: 8his-tagged RBD of the S protein of bat coronavirus isolate LYRa11 (bat coronavirus LYRa11)
[2] = target: 8his-tagged RBD of the S protein of bat coronavirus isolate RsSHC014 (bat coronavirus RsSHC014)
[3] = target: 8his-tagged RBD of the S protein of bat coronavirus isolate Rs7327 (bat coronavirus Rs7327)
[4] = target: 8his-tagged RBD of the S protein of bat coronavirus isolate Rs4084 (bat coronavirus Rs4084)
[5] = target: 8his-tagged RBD of the S protein of bat coronavirus isolate Rs4231 (bat coronavirus Rs4231)

wild type dimeric sACE22 (a.a. S19-G732) fused to the Fc of human IgG1 (from UniProt Q9BYF1 19-732) (Fc fusion)
Kd [1]: 91 nM | koff [1]: 0.079 s⁻¹ | kon [1]: 870000 M⁻¹ s⁻¹ | Kd [2]: 29 nM | koff [2]: 0.026 s⁻¹ | kon [2]: 880000 M⁻¹ s⁻¹ | Kd [3]: 63 nM | koff [3]: 0.04 s⁻¹ | kon [3]: 640000 M⁻¹ s⁻¹ | Kd [4]: 85 nM | koff [4]: 0.025 s⁻¹ | kon [4]: 290000 M⁻¹ s⁻¹ | Kd [5]: 69 nM | koff [5]: 0.022 s⁻¹ | kon [5]: 320000 M⁻¹ s⁻¹
